1 molecule from US20160146829A1 (University of California, published 2016) can be followed below.

Ends that are not written are not given here. * marks the point of attachment. Biotin = O=C1N[C@H]2[C@H](CS[C@H]2CCCCC(=O)*)N1

Experiment [1] deals with T1, pCp-1B, biotinylated alemtuzumab binding peptide (not fully specified (bridges); also: incubated with sodium tetrathionate (oxidizing) before binding).
T1 construct: Synthetic peptide (Sigma-Genosys); For ELISA it was captured on NeutrAvidin plates; also called Cp-1 (biotinylated peptide)
T1 peptide: ACGSLSPSSCGGK(Biotin)
Put plainly: peptide ELISA, biotinylated peptide on NeutrAvidin plate, antibody diluted in TBST, anti-human IgG POD detection. On the technique in general: An ELISA detects its analyte on a solid surface through an enzyme-linked reagent.

For experiment [2], the target named is T1, pCp-1B, biotinylated alemtuzumab …. Put plainly: nano-pore optical interferometry (SkiPro); biotinylated peptide on streptavidin chip, whole mAb in solution.

Broadly, the EC50 (read off the curve) is the concentration needed to bring the measured effect to its halfway point. A high value points to a need for much substance. One may read the Kd as the free concentration of one partner at which half of the binding sites on the other are occupied at equilibrium, for simple one-to-one binding. Lower therefore signals a tighter complex. The term koff denotes the rate constant with which the complex falls apart. In general, kon refers to the second-order rate constant of association.

B1: alemtuzumab (antibody, V domains shown)
VH: QVQLQESGPGLVRPSQTLSLTCTVSGFTFTDFYMNWVRQPPGRGLEWIGFIRDKAKGYTTEYNPSVKGRVTMLVDTSKNQFSLRLSSVTAADTAVYYCAREGHTAAPFDYWGQGSLVTVSS
VL: DIQMTQSPSSLSASVGDRVTITCKASQNIDKYLNWYQQKPGKAPKLLIYNTNNLQTGVPSRFSGSGSGTDFTFTISSLQPEDIATYYCLQHISRPRTFGQGTKVEIKR
As to B1, in experiment [1], the concentration giving a half-maximal response (EC50 (read off the curve)) is about 0.3 µg/mL. Besides, in experiment [2], the Kd stood at 163 nM, the koff was determined as 0.00132 s⁻¹ and the kon was found to be 8130 M⁻¹ s⁻¹.
